Assay results from patent US20220242973A1 (Molecular Partners, published 2022).

Assays:
[1] = target: T1, Human FAP expressed on the cell surface (WI38, CHO-FAP1.9, U87MG cells) (human, UniProt Q12884 1-760); experiment: FACS on WI38 cells (FAP on the cell surface), His-tag detected with Penta-His AF647 conjugate, median fluorescence intensity
T1 construct: whole, on cells; Endogenous on WI38 and U87MG cells; from a human FAP cDNA (OriGene) in CHO-FAP1.9 cells; also called hFAP; FAP+ cells
T1 sequence (looked up): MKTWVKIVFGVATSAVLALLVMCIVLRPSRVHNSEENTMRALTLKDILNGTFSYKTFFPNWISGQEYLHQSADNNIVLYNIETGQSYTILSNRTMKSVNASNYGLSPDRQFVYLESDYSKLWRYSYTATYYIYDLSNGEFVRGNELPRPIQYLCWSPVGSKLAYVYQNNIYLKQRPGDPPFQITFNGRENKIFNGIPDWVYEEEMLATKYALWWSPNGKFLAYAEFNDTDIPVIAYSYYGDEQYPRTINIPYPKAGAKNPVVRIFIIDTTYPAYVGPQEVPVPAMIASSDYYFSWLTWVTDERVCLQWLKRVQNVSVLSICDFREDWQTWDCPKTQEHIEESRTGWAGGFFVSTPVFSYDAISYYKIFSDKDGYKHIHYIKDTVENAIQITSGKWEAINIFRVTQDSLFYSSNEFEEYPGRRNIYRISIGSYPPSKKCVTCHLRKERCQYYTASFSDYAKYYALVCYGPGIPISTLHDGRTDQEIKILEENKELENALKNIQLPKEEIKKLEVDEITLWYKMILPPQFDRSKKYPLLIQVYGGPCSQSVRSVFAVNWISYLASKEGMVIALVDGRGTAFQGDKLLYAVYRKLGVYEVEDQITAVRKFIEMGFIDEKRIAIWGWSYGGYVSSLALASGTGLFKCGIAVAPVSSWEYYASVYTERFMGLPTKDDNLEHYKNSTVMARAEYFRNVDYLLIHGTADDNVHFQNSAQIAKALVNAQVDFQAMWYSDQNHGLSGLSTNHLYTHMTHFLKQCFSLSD
Experimental: (§1) In order to determine whether the fusion of a biologically active molecule to a FAP-specific ankyrin repeat domain affects the ability of the molecule to specifically recognize and bind to FAP expressed on the surface of cells, the binding of selected ankyrin repeat fusion proteins to FAP-expressing cells was tested. U87 MG cells and WI38 cells are known to express FAP on the cell surface and they were chosen as representative cells for these experiments. FAP expression on the U87 MG and WI38 cells was confirmed by FACS analysis (data not shown).
(§2) Using multi-well plates, 40,000 cells (either U87MG or WI38) were added per well in 50 μl of PBS. 50 μl of appropriate dilutions (2× dilution steps) of ankyrin repeat fusion protein (DARPin® protein #40 or DARPin® protein #41) was then added to the cells and incubated for 30 minutes on ice. After the ankyrin repeat fusion protein-binding reaction, cells were washed twice with PBS. Direct immunofluorescent detection of the His-tagged ankyrin repeat fusion proteins using Penta-His AF647 conjugate (QIAgen) and determination of live cells using LIVE/DEAD™ Fixable Green Dead Cell Stain Kit (ThermoFisher) were then performed together in one step. […] Acquisition and FACS analysis, including the determination of median fluorescence intensity (MFI), were done within 5 days after staining using an AttuneNxT instrument. […]

[2] = target: T1, Human FAP expressed on the cell surface …; experiment: FACS on U87MG cells (FAP on the cell surface), His-tag detected with Penta-His AF647 conjugate, median fluorescence intensity
Experimental: as §1, §2

B1: DARPin® protein #40 (designed binder)
chain: MRGSHHHHHHGSDLGKKLLEAARAGQDDEVRELLKAGADVNAKDYFSHTPLHLAARNGHLKIVEVLLKAGADVNAKDFAGKTPLHLAANEGHLEIVEVLLKAGADVNAQDIFGKTPADIAADAGHEDIAEVLQKAAGSPTPTPTTPTPTPTTPTPTPTGSDLGKKLLEAARAGQDDEVRILLAAGADVNAKDVLGWTPLHLAAFEGHLEIVEVLLKAGADVNAKDKKGWTPLQLAARTGHLEIVEVLLKAGADVNAKDHIGATPLHLAAWQGHPEIVEVLLKAGADVNAQDKSGKTPADLAADAGHEDIAEVLQKAA
notes: Fusion of a serum albumin-specific and a FAP-specific ankyrin repeat domain
[1]
  EC50 (read off the curve): ~2 nM
[2]
  EC50 (read off the curve): ~2 nM
